Test results reported in patent US20220411483A1 (Chugai, published 2022).
Residue numbers refer to the chain shown, from its start. One block for each binder: values may come before it.

Columns and labels:
[1] = biological target: T1, FcγRIa extracellular domain, His tag (human, UniProt P12314 16-292); test: SPR, KD ratio
T1 construct: whole entry named; also called FcgRIa

[2] = biological target: T2, FcγRIIa R type extracellular domain, His tag (human, UniProt P12318 34-217); test: SPR, KD ratio
T2 construct: extracellular domain; also called FcgRIIaR
T2 sequence (looked up): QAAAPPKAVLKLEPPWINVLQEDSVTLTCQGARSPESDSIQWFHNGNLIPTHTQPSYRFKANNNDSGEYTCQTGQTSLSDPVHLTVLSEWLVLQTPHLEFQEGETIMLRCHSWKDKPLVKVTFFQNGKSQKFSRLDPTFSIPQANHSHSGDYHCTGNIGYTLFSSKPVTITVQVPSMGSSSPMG

[3] = biological target: T3, FcγRIIa H type extracellular domain, His tag (human, UniProt P12318 34-217); test: SPR, KD ratio
T3 construct: extracellular domain; also called FcgRIIaH
T3 sequence (looked up): T2 sequence (looked up) with R134H

[4] = biological target: T4, FcγRIIb extracellular domain, His tag (human, UniProt P31994 43-217); test: SPR, KD ratio
T4 construct: extracellular domain; also called FcgRIIb
T4 sequence (looked up): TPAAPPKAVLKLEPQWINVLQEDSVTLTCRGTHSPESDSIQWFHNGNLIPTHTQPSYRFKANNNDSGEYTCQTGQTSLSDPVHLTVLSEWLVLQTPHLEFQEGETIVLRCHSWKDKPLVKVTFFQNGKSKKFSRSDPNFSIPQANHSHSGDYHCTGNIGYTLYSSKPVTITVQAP

[5] = biological target: T5, FcγRIIIa V type extracellular domain, His tag (human, UniProt P08637 17-208); test: SPR, KD ratio
T5 construct: extracellular domain; also called FcgRIIIaV
T5 sequence (P08637 17-208 F176V): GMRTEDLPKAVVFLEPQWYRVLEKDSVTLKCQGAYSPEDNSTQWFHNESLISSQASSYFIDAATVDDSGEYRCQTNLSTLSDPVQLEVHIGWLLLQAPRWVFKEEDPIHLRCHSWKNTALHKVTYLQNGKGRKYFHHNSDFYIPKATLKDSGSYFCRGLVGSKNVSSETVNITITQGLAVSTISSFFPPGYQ

[6] = biological target: T2, FcγRIIa R type extracellular domain, …; test: SPR, bound amount per captured antibody
[7] = biological target: T4, FcγRIIb extracellular domain, His tag; test: SPR, bound amount per captured antibody

T1 sequence (P12314 16-292): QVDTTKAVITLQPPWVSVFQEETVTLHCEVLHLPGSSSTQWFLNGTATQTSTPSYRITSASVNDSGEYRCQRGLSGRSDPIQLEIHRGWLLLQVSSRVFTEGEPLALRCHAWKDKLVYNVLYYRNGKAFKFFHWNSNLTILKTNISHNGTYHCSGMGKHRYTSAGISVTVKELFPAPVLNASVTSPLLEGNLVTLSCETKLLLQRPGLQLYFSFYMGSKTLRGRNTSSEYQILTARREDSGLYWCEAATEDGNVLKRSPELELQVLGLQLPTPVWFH

Relative FcgRIa-binding Activity [1]: 0.0017 fold of IL6R-G1d/IL6R-L
Relative FcgRIIaR-binding Activity [2]: 0.019 fold of IL6R-G1d/IL6R-L
Relative FcgRIIaH-binding Activity [3]: 0.016 fold of IL6R-G1d/IL6R-L
Relative FcgRIIb-binding Activity [4]: 1.25 fold of IL6R-G1d/IL6R-L
Relative FcgRIIIaV-binding Activity [5]: 0.009 fold of IL6R-G1d/IL6R-L
Relative FcgRIIaR-binding Activity [6]: 12 % of IL6R-G1d/IL6R-L
Relative FcgRIIb-binding Activity [7]: 123 % of IL6R-G1d/IL6R-L
B1: IL6R-P726/IL6R-L (antibody, human IgG1, kappa)
heavy: QVQLQESGPGLVKPSETLSLTCAVSGHSISHDHAWSWVRQPPGEGLEWIGFISYSGITNYNPSLQGRVTISRDNSKNTLYLQMNSLRAEDTAVYYCARSLARTTAMDYWGEGTLVTVSSASTKGPSVFPLAPSSKSTSGGTAALGCLVKDYFPEPVTVSWNSGALTSGVHTFPAVLQSSGLYSLSSVVTVPSSSLGTQTYICNVNHKPSNTKVDKKVEPKSCDKTHTCPPCPAPELLGQDSVMLFPPKPKDTLMISRTPEVTCVVVDVSHEDPEVKFNWYVDGVEVHNAKTKPREEQENSTYRVVSVLTVLHQDWLNGKEYKCKVHNKALPHPIEKTISKAKGQPREPQVYTLPPSRDELTKNQVSLTCLVKGFYPSDIAVEWESNGQPENNYKTTPPVLDSDGSFFLYSKLTVDKSRWQQGNVFSCSVMHEALHNHYTQKSLSLSP
light: not shown

Relative FcgRIa-binding Activity [1]: 0.0015 fold of IL6R-G1d/IL6R-L
Relative FcgRIIaR-binding Activity [2]: 0.018 fold of IL6R-G1d/IL6R-L
Relative FcgRIIaH-binding Activity [3]: 0.011 fold of IL6R-G1d/IL6R-L
Relative FcgRIIb-binding Activity [4]: 2.07 fold of IL6R-G1d/IL6R-L
Relative FcgRIIIaV-binding Activity [5]: 0.003 fold of IL6R-G1d/IL6R-L
Relative FcgRIIaR-binding Activity [6]: 12.5 % of IL6R-G1d/IL6R-L
Relative FcgRIIb-binding Activity [7]: 169 % of IL6R-G1d/IL6R-L
B2: IL6R-P734/IL6R-L (antibody, human IgG1, kappa)
heavy: B1 heavy with L237F
light: not shown

Relative FcgRIa-binding Activity [1]: 0.0005 fold of IL6R-G1d/IL6R-L
Relative FcgRIIaR-binding Activity [2]: 0.015 fold of IL6R-G1d/IL6R-L
Relative FcgRIIaH-binding Activity [3]: 0.005 fold of IL6R-G1d/IL6R-L
Relative FcgRIIb-binding Activity [4]: 1.17 fold of IL6R-G1d/IL6R-L
Relative FcgRIIIaV-binding Activity [5]: 0.006 fold of IL6R-G1d/IL6R-L
Relative FcgRIIaR-binding Activity [6]: 10 % of IL6R-G1d/IL6R-L
Relative FcgRIIb-binding Activity [7]: 127 % of IL6R-G1d/IL6R-L
B3: IL6R-P729/IL6R-L (antibody, human IgG1, kappa)
heavy: B1 heavy with L237F, H270P, H326S, H332A
light: not shown

Relative FcgRIa-binding Activity [1]: 0.002 fold of IL6R-G1d/IL6R-L
Relative FcgRIIaR-binding Activity [2]: 0.011 fold of IL6R-G1d/IL6R-L
Relative FcgRIIaH-binding Activity [3]: 0.006 fold of IL6R-G1d/IL6R-L
Relative FcgRIIb-binding Activity [4]: 0.802 fold of IL6R-G1d/IL6R-L
Relative FcgRIIIaV-binding Activity [5]: 0.005 fold of IL6R-G1d/IL6R-L
Relative FcgRIIaR-binding Activity [6]: 7.2 % of IL6R-G1d/IL6R-L
Relative FcgRIIb-binding Activity [7]: 99.5 % of IL6R-G1d/IL6R-L
B4: IL6R-P737/IL6R-L (antibody, human IgG1, kappa)
heavy: B1 heavy with H270P
light: not shown

Relative FcgRIa-binding Activity [1]: 0.0006 fold of IL6R-G1d/IL6R-L
Relative FcgRIIaR-binding Activity [2]: 0.017 fold of IL6R-G1d/IL6R-L
Relative FcgRIIaH-binding Activity [3]: 0.012 fold of IL6R-G1d/IL6R-L
Relative FcgRIIb-binding Activity [4]: 1.31 fold of IL6R-G1d/IL6R-L
Relative FcgRIIIaV-binding Activity [5]: 0.007 fold of IL6R-G1d/IL6R-L
Relative FcgRIIaR-binding Activity [6]: 11 % of IL6R-G1d/IL6R-L
Relative FcgRIIb-binding Activity [7]: 126 % of IL6R-G1d/IL6R-L
B5: IL6R-P728/IL6R-L (antibody, human IgG1, kappa)
heavy: B1 heavy with L237F, H332A
light: not shown

Relative FcgRIa-binding Activity [1]: 0.0014 fold of IL6R-G1d/IL6R-L
Relative FcgRIIaR-binding Activity [2]: 0.012 fold of IL6R-G1d/IL6R-L
Relative FcgRIIaH-binding Activity [3]: 0.007 fold of IL6R-G1d/IL6R-L
Relative FcgRIIb-binding Activity [4]: 1.06 fold of IL6R-G1d/IL6R-L
Relative FcgRIIIaV-binding Activity [5]: 0.005 fold of IL6R-G1d/IL6R-L
Relative FcgRIIaR-binding Activity [6]: 8.3 % of IL6R-G1d/IL6R-L
Relative FcgRIIb-binding Activity [7]: 108 % of IL6R-G1d/IL6R-L
B6: IL6R-P727/IL6R-L (antibody, human IgG1, kappa)
heavy: B1 heavy with H270P, H326S
light: not shown

Relative FcgRIa-binding Activity [1]: 0.0049 fold of IL6R-G1d/IL6R-L
Relative FcgRIIaR-binding Activity [2]: 0.012 fold of IL6R-G1d/IL6R-L
Relative FcgRIIaH-binding Activity [3]: 0.007 fold of IL6R-G1d/IL6R-L
Relative FcgRIIb-binding Activity [4]: 0.499 fold of IL6R-G1d/IL6R-L
Relative FcgRIIIaV-binding Activity [5]: 0.006 fold of IL6R-G1d/IL6R-L
Relative FcgRIIaR-binding Activity [6]: 8.1 % of IL6R-G1d/IL6R-L
Relative FcgRIIb-binding Activity [7]: 85.8 % of IL6R-G1d/IL6R-L
B7: IL6R-P731/IL6R-L (antibody, human IgG1, kappa)
heavy: B1 heavy with H270P, H332A
light: not shown

Relative FcgRIa-binding Activity [1]: 0.0001 fold of IL6R-G1d/IL6R-L
Relative FcgRIIaR-binding Activity [2]: 0.009 fold of IL6R-G1d/IL6R-L
Relative FcgRIIaH-binding Activity [3]: 0.006 fold of IL6R-G1d/IL6R-L
Relative FcgRIIb-binding Activity [4]: 1.09 fold of IL6R-G1d/IL6R-L
Relative FcgRIIIaV-binding Activity [5]: 0.004 fold of IL6R-G1d/IL6R-L
Relative FcgRIIaR-binding Activity [6]: 6.3 % of IL6R-G1d/IL6R-L
Relative FcgRIIb-binding Activity [7]: 104 % of IL6R-G1d/IL6R-L
B8: IL6R-P733/IL6R-L (antibody, human IgG1, kappa)
heavy: B1 heavy with L237F, H270P, H332A
light: not shown

Relative FcgRIa-binding Activity [1]: 0.0013 fold of IL6R-G1d/IL6R-L
Relative FcgRIIaR-binding Activity [2]: 0.021 fold of IL6R-G1d/IL6R-L
Relative FcgRIIaH-binding Activity [3]: 0.007 fold of IL6R-G1d/IL6R-L
Relative FcgRIIb-binding Activity [4]: 2.26 fold of IL6R-G1d/IL6R-L
Relative FcgRIIIaV-binding Activity [5]: 0.005 fold of IL6R-G1d/IL6R-L
Relative FcgRIIaR-binding Activity [6]: 14.3 % of IL6R-G1d/IL6R-L
Relative FcgRIIb-binding Activity [7]: 173 % of IL6R-G1d/IL6R-L
B9: IL6R-P735/IL6R-L (antibody, human IgG1, kappa)
heavy: B1 heavy with L237F, H270P, H326S
light: not shown
